Laboratory results as given in paper PMC4558169, “Anchoring of both PKA-RIIα and 14-3-3θ regulates retinoic acid induced 16 mediated phosphorylation of heat shock protein 70” (Oncotarget, 2015).

B1: endogenous 14-3-3θ (natural protein, human (endogenous in HEK293T), UniProt P27348 1-245, looked up)
chain: MEKTELIQKAKLAEQAERYDDMATCMKAVTEQGAELSNEERNLLSVAYKNVVGGRRSAWRVISSIEQKTDTSDKKLQLIKDYREKVESELRSICTTVLELLDKYLIANATNPESKVFYLKMKGDYFRYLAEVACGDDRKQTIDNSQGAYQEAFDISKKEMQPTHPIRLGLALNFSVFYYEILNNPELACTLAKTAFDEAIAELDTLNEDSYKDSTLIMQLLRDNLTLWTSDSAGEECDAAEGAEN
notes: 14-3-3 protein theta, endogenous in HEK293T cells; source: endogenous, HEK293T lysate

Key:
[1] = target: 14-3-3θ (UniProt P27348); test: anti-Flag co-IP, 14-3-3θ blot; details: reference: wild type; sites S325
[2] = target: T1, Flag-tagged retinoic acid induced 16 (RAI16), full length (UniProt Q86V87 1-743); test: co-IP; Flag-tagged RAI16 or its mutants expressed in HEK293T cells, alone or with Ha-tagged PKA-RIIα; anti-Flag immunoprecipitation, endogenous 14-3-3θ detected with anti-14-3-3θ antibody; cells untreated, treated with forskolin or with forskolin + PKImyr; details: partners not purified
T1 construct: 743 residues by the printed fragment limits; also called Flag-RAI16; Fam160B2; source: HEK293T, transfected (pcDNA3.1), in lysate
T1 sequence (Q86V87 whole entry, the tested form may be a part): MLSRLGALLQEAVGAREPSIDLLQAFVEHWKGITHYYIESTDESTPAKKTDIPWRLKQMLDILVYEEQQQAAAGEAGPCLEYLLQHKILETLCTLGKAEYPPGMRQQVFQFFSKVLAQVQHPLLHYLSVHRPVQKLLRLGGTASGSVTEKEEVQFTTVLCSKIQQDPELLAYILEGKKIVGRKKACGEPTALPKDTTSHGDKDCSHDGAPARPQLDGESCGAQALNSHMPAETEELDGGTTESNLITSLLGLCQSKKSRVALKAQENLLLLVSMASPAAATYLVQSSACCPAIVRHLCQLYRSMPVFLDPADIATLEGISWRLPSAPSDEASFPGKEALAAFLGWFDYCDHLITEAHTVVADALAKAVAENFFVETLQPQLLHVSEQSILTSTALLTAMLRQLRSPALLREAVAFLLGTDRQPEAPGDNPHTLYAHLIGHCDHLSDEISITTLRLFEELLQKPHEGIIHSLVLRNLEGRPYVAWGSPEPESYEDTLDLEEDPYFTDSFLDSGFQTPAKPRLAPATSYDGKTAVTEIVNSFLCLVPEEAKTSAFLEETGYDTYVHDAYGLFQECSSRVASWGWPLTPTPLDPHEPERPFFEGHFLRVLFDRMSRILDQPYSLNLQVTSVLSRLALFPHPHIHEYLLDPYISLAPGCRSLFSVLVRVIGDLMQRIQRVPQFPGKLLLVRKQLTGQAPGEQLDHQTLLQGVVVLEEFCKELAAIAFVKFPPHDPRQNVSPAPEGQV

Molecule	binding against the reference [1]	fold change of co-precipitated 14-3-3θ with forskolin against untreated cells [2]
RAI16 (retinoic acid induced 16) (from UniProt Q86V87) S325A	lost	–
B1	–	3.25 fold
